Data reported in IntAct's records for PubMed 23357641.

B1: Nephronectin (Mus musculus), Q91V88 (parent)
chain: MAVLLAAVLASSLYLQVAADFDGRWPRQIVSSIGLCRYGGRIDCCWGWARQSWGQCQPVCQPQCKHGECVGPNKCKCHPGFAGKTCNQDLNECGLKPRPCKHRCMNTFGSYKCYCLNGYMLLPDGSCSSALSCSMANCQYGCDVVKGQVRCQCPSPGLQLAPDGRTCVDIDECATGRVSCPRFRQCVNTFGSYICKCHTGFDLMYIGGKYQCHDIDECSLGQHQCSSYARCYNIHGSYKCQCRDGYEGDGLNCVYIPKVMIEPSGPIHMPERNGTISKGDGGHANRIPDAGSTRWPLKTPYIPPVITNRPTSKPTTRPTPNPTPQPTPPPPPPLPTEPRTTPLPPTPERPSTRPTTIAPATSTTTRVITVDNRIQTDPQKPRGDVFIPRQPTNDLFEIFEIERGVSADEEVKDDPGILIHSCNFDHGLCGWIREKDSDLHWETARDPAGGQYLTVSAAKAPGGKAARLVLRLGHLMHSGDLCLSFRHKVTGLHSGTLQVFVRKHGTHGAALWGRNGGHGWRQTQITLRGADVKSVIFKGEKRRGHTGEIGLDDVSLKRGRC

Variants of: B1
Details: with agrin_human AGRN

Effect of a mutation on the interaction, decreasing interaction:
MAVLLAAVLASSLYLQVAADFDGRWPRQIVSSIGLCRYGGRIDCCWGWARQSWGQCQPVCQPQCKHGECVGPNKCKCHPGFAGKTCNQDLNECGLKPRPCKHRCMNTFGSYKCYCLNGYMLLPDGSCSSALSCSMANCQYGCDVVKGQVRCQCPSPGLQLAPDGRTCVDIDECATGRVSCPRFRQCVNTFGSYICKCHTGFDLMYIGGKYQCHDIDECSLGQHQCSSYARCYNIHGSYKCQCRDGYEGDGLNCVYIPKVMIEPSGPIHMPERNGTISKGDGGHANRIPDAGSTRWPLKTPYIPPVITNRPTSKPTTRPTPNPTPQPTPPPPPPLPTEPRTTPLPPTPERPSTRPTTIAPATSTTTRVITVDNRIQTDPQKPRGDVFIPRQPTNDLFEIFEIERGVSADEEVKDDPGILIHSCNFDHGLCGWIREKDSDLHWETARDPAGGQYLTVSAAAAPGGAAARLVLRLGHLMHSGDLCLSFRHKVTGLHSGTLQVFVRKHGTHGAALWGRNGGHGWRQTQITLRGADVKSVIFKGEKRRGHTGEIGLDDVSLKRGRC [K459A;K464A]
MAVLLAAVLASSLYLQVAADFDGRWPRQIVSSIGLCRYGGRIDCCWGWARQSWGQCQPVCQPQCKHGECVGPNKCKCHPGFAGKTCNQDLNECGLKPRPCKHRCMNTFGSYKCYCLNGYMLLPDGSCSSALSCSMANCQYGCDVVKGQVRCQCPSPGLQLAPDGRTCVDIDECATGRVSCPRFRQCVNTFGSYICKCHTGFDLMYIGGKYQCHDIDECSLGQHQCSSYARCYNIHGSYKCQCRDGYEGDGLNCVYIPKVMIEPSGPIHMPERNGTISKGDGGHANRIPDAGSTRWPLKTPYIPPVITNRPTSKPTTRPTPNPTPQPTPPPPPPLPTEPRTTPLPPTPERPSTRPTTIAPATSTTTRVITVDNRIQTDPQKPRGDVFIPRQPTNDLFEIFEIERGVSADEEVKDDPGILIHSCNFDHGLCGWIREKDSDLHWETARDPAGGQYLTVSAAKAPGGKAARLVLRLGHLMHSGDLCLSFRHKVTGLHSGTLQVFVRKHGTHGAALWGRNGGHGWRQTQITLAGADVKSVIFKGEKRRGHTGEIGLDDVSLKRGRC [R528A]
MAVLLAAVLASSLYLQVAADFDGRWPRQIVSSIGLCRYGGRIDCCWGWARQSWGQCQPVCQPQCKHGECVGPNKCKCHPGFAGKTCNQDLNECGLKPRPCKHRCMNTFGSYKCYCLNGYMLLPDGSCSSALSCSMANCQYGCDVVKGQVRCQCPSPGLQLAPDGRTCVDIDECATGRVSCPRFRQCVNTFGSYICKCHTGFDLMYIGGKYQCHDIDECSLGQHQCSSYARCYNIHGSYKCQCRDGYEGDGLNCVYIPKVMIEPSGPIHMPERNGTISKGDGGHANRIPDAGSTRWPLKTPYIPPVITNRPTSKPTTRPTPNPTPQPTPPPPPPLPTEPRTTPLPPTPERPSTRPTTIAPATSTTTRVITVDNRIQTDPQKPRGDVFIPRQPTNDLFEIFEIERGVSADEEVKDDPGILIHSCNFDHGLCGWIREKDSDLHWETARDPAGGQYLTVSAAKAPGGKAARLVLRLGHLMHSGDLCLSFRHKVTGLHSGTLQVFVAAAGTHGAALWGRNGGHGWRQTQITLRGADVKSVIFKGEKRRGHTGEIGLDDVSLKRGRC [R502A;K503A;H504A]
MAVLLAAVLASSLYLQVAADFDGRWPRQIVSSIGLCRYGGRIDCCWGWARQSWGQCQPVCQPQCKHGECVGPNKCKCHPGFAGKTCNQDLNECGLKPRPCKHRCMNTFGSYKCYCLNGYMLLPDGSCSSALSCSMANCQYGCDVVKGQVRCQCPSPGLQLAPDGRTCVDIDECATGRVSCPRFRQCVNTFGSYICKCHTGFDLMYIGGKYQCHDIDECSLGQHQCSSYARCYNIHGSYKCQCRDGYEGDGLNCVYIPKVMIEPSGPIHMPERNGTISKGDGGHANRIPDAGSTRWPLKTPYIPPVITNRPTSKPTTRPTPNPTPQPTPPPPPPLPTEPRTTPLPPTPERPSTRPTTIAPATSTTTRVITVDNRIQTDPQKPRGDVFIPRQPTNDLFEIFEIERGVSADEEVKDDPGILIHSCNFDHGLCGWIREKDSDLHWETARDPAGGQYLTVSAAKAPGGKAARLVLRLGHLMHSGDLCLSFRHKVTGLHSGTLQVFVRKHGTHGAALWGRNGGHGWRQTQITLRGADVKSVIFKGEAAAGHTGEIGLDDVSLKRGRC [K541A;R542A;R543A]
MAVLLAAVLASSLYLQVAADFDGRWPRQIVSSIGLCRYGGRIDCCWGWARQSWGQCQPVCQPQCKHGECVGPNKCKCHPGFAGKTCNQDLNECGLKPRPCKHRCMNTFGSYKCYCLNGYMLLPDGSCSSALSCSMANCQYGCDVVKGQVRCQCPSPGLQLAPDGRTCVDIDECATGRVSCPRFRQCVNTFGSYICKCHTGFDLMYIGGKYQCHDIDECSLGQHQCSSYARCYNIHGSYKCQCRDGYEGDGLNCVYIPKVMIEPSGPIHMPERNGTISKGDGGHANRIPDAGSTRWPLKTPYIPPVITNRPTSKPTTRPTPNPTPQPTPPPPPPLPTEPRTTPLPPTPERPSTRPTTIAPATSTTTRVITVDNRIQTDPQKPRGDVFIPRQPTNDLFEIFEIERGVSADEEVKDDPGILIHSCNFDHGLCGWIREKDSDLHWETARDPAGGQYLTVSAAKAPGGKAARLVLRLGHLMHSGDLCLSFRHKVTGLHSGTLQVFVRKHGTHGAALWGRNGGHGWRQTQITLRGADVKSVIFKGEKRRGHTGEIGLDDVSLAAAAC [K557A;R558A;G559A;R560A]
MAVLLAAVLASSLYLQVAADFDGRWPRQIVSSIGLCRYGGRIDCCWGWARQSWGQCQPVCQPQCKHGECVGPNKCKCHPGFAGKTCNQDLNECGLKPRPCKHRCMNTFGSYKCYCLNGYMLLPDGSCSSALSCSMANCQYGCDVVKGQVRCQCPSPGLQLAPDGRTCVDIDECATGRVSCPRFRQCVNTFGSYICKCHTGFDLMYIGGKYQCHDIDECSLGQHQCSSYARCYNIHGSYKCQCRDGYEGDGLNCVYIPKVMIEPSGPIHMPERNGTISKGDGGHANRIPDAGSTRWPLKTPYIPPVITNRPTSKPTTRPTPNPTPQPTPPPPPPLPTEPRTTPLPPTPERPSTRPTTIAPATSTTTRVITVDNRIQTDPQKPRGDVFIPRQPTNDLFEIFEIERGVSADEEVKDDPGILIHSCNFDHGLCGWIREKDSDLHWETAADPAGGQYLTVSAAKAPGGKAARLVLRLGHLMHSGDLCLSFRHKVTGLHSGTLQVFVRKHGTHGAALWGRNGGHGWRQTQITLRGADVKSVIFKGEKRRGHTGEIGLDDVSLKRGRC [R445A]
MAVLLAAVLASSLYLQVAADFDGRWPRQIVSSIGLCRYGGRIDCCWGWARQSWGQCQPVCQPQCKHGECVGPNKCKCHPGFAGKTCNQDLNECGLKPRPCKHRCMNTFGSYKCYCLNGYMLLPDGSCSSALSCSMANCQYGCDVVKGQVRCQCPSPGLQLAPDGRTCVDIDECATGRVSCPRFRQCVNTFGSYICKCHTGFDLMYIGGKYQCHDIDECSLGQHQCSSYARCYNIHGSYKCQCRDGYEGDGLNCVYIPKVMIEPSGPIHMPERNGTISKGDGGHANRIPDAGSTRWPLKTPYIPPVITNRPTSKPTTRPTPNPTPQPTPPPPPPLPTEPRTTPLPPTPERPSTRPTTIAPATSTTTRVITVDNRIQTDPQKPRGDVFIPRQPTNDLFEIFEIERGVSADEEVKDDPGILIHSCNFDHGLCGWIREKDSDLHWETARDPAGGQYLTVSAAKAPGGKAARLVLALGHLMHSGDLCLSFRHKVTGLHSGTLQVFVRKHGTHGAALWGRNGGHGWRQTQITLRGADVKSVIFKGEKRRGHTGEIGLDDVSLKRGRC [R471A]
